According to patent US20240092867A1 (UNIVERSITY OF CHICAGO, published 2024):

T1: placental growth factor (PlGF)-2 (human, UniProt P49763-3 19-170)
T1 construct: mature; Purchased in mature form
T1 sequence (looked up): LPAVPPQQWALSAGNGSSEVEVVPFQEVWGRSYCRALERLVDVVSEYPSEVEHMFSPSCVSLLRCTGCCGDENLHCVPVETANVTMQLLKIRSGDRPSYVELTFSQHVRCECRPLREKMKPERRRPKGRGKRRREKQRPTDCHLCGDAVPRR

T2: recombinant human syndecan-4 (human, UniProt P31431 19-145, limits assumed)
T2 construct: Histidine tag of unstated position and length
T2 sequence (looked up): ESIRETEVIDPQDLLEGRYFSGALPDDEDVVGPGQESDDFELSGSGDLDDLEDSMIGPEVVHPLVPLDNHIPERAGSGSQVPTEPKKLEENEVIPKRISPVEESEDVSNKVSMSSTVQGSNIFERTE

T3: recombinant human syndecan-1 (human, UniProt P18827 23-254, limits assumed)
T3 construct: Histidine tag of unstated position and length
T3 sequence (looked up): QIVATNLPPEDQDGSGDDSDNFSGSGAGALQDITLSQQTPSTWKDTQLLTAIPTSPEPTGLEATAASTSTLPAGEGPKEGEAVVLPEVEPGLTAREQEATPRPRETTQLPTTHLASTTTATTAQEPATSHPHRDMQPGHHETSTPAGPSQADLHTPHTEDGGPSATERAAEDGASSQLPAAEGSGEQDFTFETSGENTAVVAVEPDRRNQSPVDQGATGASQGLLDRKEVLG

T4: vascular endothelial growth factor (VEGF)-A121 (human, UniProt P15692-9 27-147)
T4 construct: mature; Purchased in mature form, not glycosylated
T4 sequence (looked up): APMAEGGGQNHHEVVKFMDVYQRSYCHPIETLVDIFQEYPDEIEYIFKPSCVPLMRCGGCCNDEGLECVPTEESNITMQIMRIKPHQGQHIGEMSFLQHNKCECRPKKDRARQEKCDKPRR

T5: placental growth factor (PlGF)-1 (human, UniProt P49763-2 19-149)
T5 construct: mature; Purchased in mature form
T5 sequence (looked up): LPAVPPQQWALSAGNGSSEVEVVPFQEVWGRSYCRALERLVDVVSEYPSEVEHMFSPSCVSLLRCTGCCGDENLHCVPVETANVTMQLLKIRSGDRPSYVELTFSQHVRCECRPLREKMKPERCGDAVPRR

B1: vWF A1 HBD R1341L (peptide)
peptide: YIGLKDRKRPSELLRIASQVKYA
notes: The entry already carries the substitution
B2: vWF A1 HBD R1341Q (peptide)
peptide: YIGLKDRKRPSELQRIASQVKYA
notes: as for B1
B3: vWF A1 HBD R1341S (peptide)
peptide: YIGLKDRKRPSELSRIASQVKYA
notes: as for B1
B4: vWF A1 HBD R1341P (peptide)
peptide: YIGLKDRKRPSELPRIASQVKYA
notes: as for B1
B5: vWF A1 HBD R1341W (peptide)
peptide: YIGLKDRKRPSELWRIASQVKYA
notes: as for B1
B6: bone morphogenetic protein (BMP)-7 (ligand, UniProt P18075 293-431, looked up)
chain: STGSKQRSQNRSKTPKNQEALRMANVAENSSSDQRQACKKHELYVSFRDLGWQDWIIAPEGYAAYYCEGECAFPLNSYMNATNHAIVQTLVHFINPETVPKPCCAPTQLNAISVLYFDDSSNVILKKYRNMVVRACGCH
notes: mature; Purchased in mature form
B7: bone morphogenetic protein (BMP)-4 (ligand, UniProt P12644 293-408, looked up)
chain: SPKHHSQRARKKNKNCRRHSLYVDFSDVGWNDWIVAPPGYQAFYCHGDCPFPLADHLNSTNHAIVQTLVNSVNSSIPKACCVPTELSAISMLYLDEYDKVVLKNYQEMVVEGCGCR
notes: as for B6
B8: fibroblast growth factor (FGF)-6 (ligand, UniProt P10767 38-208, looked up)
chain: SPAGTRANNTLLDSRGWGTLLSRSRAGLAGEIAGVNWESGYLVGIKRQRRLYCNVGIGFHLQVLPDGRISGTHEENPYSLLEISTVERGVVSLFGVRSALFVAMNSKGRLYATPSFQEECKFRETLLPNNYNAYESDLYQGTYIALSKYGRVKRGSKVSPIMTVTHFLPRI
notes: as for B6

Key:
[1] = biological target: T6, vascular endothelial growth factor (VEGF)-A165 (human, UniProt P15692-4 27-191); test: ELISA, HBD peptides
T6 construct: mature; Purchased in mature form, not glycosylated

[2] = biological target: T7, platelet-derived growth factor (PDGF)-BB (human, UniProt P01127 82-190); test: ELISA, HBD peptides
T7 construct: mature; Purchased in mature form

[3] = biological target: T8, fibroblast growth factor (FGF)-2 (human, UniProt P09038 143-288); test: ELISA, HBD peptides
T8 construct: mature; Purchased in mature form

[4] = biological target: T6, vascular endothelial growth factor …; test: ELISA, peptide coated, GF 1 µg/mL
Description: (§1) (A) The location of laminin-derived peptides in the LG domain of laminin α3, α4, and α5 chains. (B-F) Affinity of heparin and GFs against chemically synthesized peptides derived from the LG domain of laminin α3, α4, and α5 chains. ELISA plates were coated with 10 μg/mL laminin peptide and further incubated with (B) biotinylated heparin, (C) VEGF-A165 and VEGF-A121, (D) PlGF-2 and PlGF-1, (E) PDGF-BB, or (F) FGF-2. Concentrations were 1 μg/mL for GFs and 10 μg/mL for heparin. Bound heparin was detected with streptavidin, and bound GFs with a specific antibody for each GF (n=4, mean±SEM). Statistical analyses were done using the Mann-Whitney U test by comparing the signals obtained from the laminin peptide- and the BSA-coated wells. *p<0.05, **p<0.01.
(§2) ELISA tests were performed as described above. […] 1 μg/mL of BSA served as non-binding protein control. After blocking with 2% BSA PBS-0.05% Tween 20 (PBS-T) solution, 1 μg/mL of the recombinant human proteins (VEGF-A121, VEGF-A165, PlGF-1, PlGF-2, PDGF-BB or FGF-2) or 10 μg/mL of biotinylated heparin (Sigma-Aldrich) were added. Bound GF was detected with biotinylated antibodies for human VEGF, PlGF, PDGF-BB, or FGF-2 (R&D Systems). The antibodies were detected by streptavidin-HRP (R&D Systems).

[5] = biological target: T7, platelet-derived growth factor (PDGF)-BB; test: ELISA, peptide coated, GF 1 µg/mL
Description: as §1, §2

[6] = biological target: T8, fibroblast growth factor (FGF)-2; test: ELISA, peptide coated, GF 1 µg/mL
Description: as §1, §2

[7] = biological target: T1, placental growth factor (PlGF)-2; test: ELISA, peptide coated, GF 1 µg/mL
Description: as §1, §2

[8] = biological target: T9, recombinant human syndecan-2 (human, UniProt P34741 19-144, limits assumed); test: ELISA, peptide coated, syndecan 1 µg/mL, anti-His detection
T9 construct: Histidine tag of unstated position and length
Description: (§3) ELISA tests were performed as described above. In brief, ELISA plates were coated with 1 μg/mL laminin peptide (sequences are described in Table 1, chemically synthesized by Genscript) in PBS for 2 hrs at 37° C. 1 μg/mL of BSA served as non-binding protein control. After blocking with 2% BSA PBS-T solution, 1 μg/mL of the recombinant human syndecan-1, syndecan-2, syndecan-3, syndecan-4 (all syndecan proteins are histidine-tagged; SinoBiological) were added. Bound GF was detected with anti-histidine tag antibody (1:1000 dilution, BioLegend).

[9] = biological target: T2, recombinant human syndecan-4; test: as above
Description: as §3

[10] = biological target: T3, recombinant human syndecan-1; test: as above
Description: as §3

[11] = biological target: T4, vascular endothelial growth factor …; test: ELISA, peptide coated
Description: as §1, §2

[12] = biological target: T5, placental growth factor (PlGF)-1; test: ELISA, peptide coated
Description: as §1, §2

laminin-111 = biological target: T10, laminin-111 (human, UniProt P25391 18-3075; P07942 22-1786; P11047 34-1609); test: ELISA, GF coated, laminin 10 nM
T10 construct: Full-length recombinant human laminin isoform (BioLamina); Chain composition is read from the isoform name
Description: (§4) ELISA tests were performed as previously reported. In brief, ELISA plates (med-binding, Greiner Bio-One) were coated with 50 nM GFs at 37° C. for more than 2 hrs. […] Bound laminin was detected with rabbit anti-human laminin γ1 chain antibody (1:1000 dilution, Assay biotech) or rabbit anti-human laminin α3 chain antibody (1:1000 dilution, Assay biotech). After incubation with biotinylated anti-rabbit antibody for 60 min at room temperature (RT), HRP conjugated streptavidin (Jackson ImmunoResearch) was added. After 60 min of incubation at RT, 50 μL TMB substrate (Sigma-Aldrich) was added. The reactions were stopped by adding 25 μL of 2 N H₂SO₄. Subsequently, the absorbance at 450 nm was measured with a reference of 570 nm.

laminin-411 = biological target: T11, laminin-411 (human, UniProt Q16363 25-1823; P07942 22-1786; P11047 34-1609); test: ELISA, GF coated, laminin 10 nM
T11 construct: Full-length recombinant human laminin isoform (BioLamina); chains read from the isoform name
Description: as §4

laminin-332 = biological target: T12, laminin-332 (human, UniProt Q16787 28-1724; Q13751 18-1172; Q13753 22-1193, limits assumed); test: ELISA, GF coated, laminin 10 nM
T12 construct: Full-length recombinant human laminin isoform (BioLamina); chains read from the isoform name
Description: as §4

laminin-421 = biological target: T13, laminin-421 (human, UniProt Q16363 25-1823; P55268 33-1798; P11047 34-1609); test: ELISA, GF coated, laminin 10 nM
T13 construct: Full-length recombinant human laminin isoform (BioLamina); chains read from the isoform name
Description: as §4

laminin-511 = biological target: T14, laminin-511 (human, UniProt O15230 36-3695; P07942 22-1786; P11047 34-1609); test: ELISA, GF coated, laminin 10 nM
T14 construct: Full-length recombinant human laminin isoform (BioLamina); chains read from the isoform name
Description: as §4

laminin-211 = biological target: T15, laminin-211 (human, UniProt P24043 23-3122; P07942 22-1786; P11047 34-1609); test: ELISA, GF coated, laminin 10 nM
T15 construct: Full-length recombinant human laminin isoform (BioLamina); chains read from the isoform name
Description: as §4

laminin-521 = biological target: T16, laminin-521 (human, UniProt O15230 36-3695; P55268 33-1798; P11047 34-1609); test: ELISA, GF coated, laminin 10 nM
T16 construct: Full-length recombinant human laminin isoform (BioLamina); chains read from the isoform name
Description: as §4

human plasma-derived vWF = biological target: T17, human plasma-derived vWF (human, UniProt P04275 764-2813); test: ELISA, GF coated 50 nM, vWF 1 µg/mL
T17 construct: mature; also called plasma-derived purified vWF; von Willebrand factor
Description: ELISA tests were performed as previously reported1. In brief, ELISA plates (med-binding, Greiner Bio-One) were coated with 50 nM GFs at 37° C. for 2 hrs. […] Then, HRP conjugated goat anti-rabbit antibody (Jackson ImmunoResearch) was added. After 60 min of incubation, 50 μL TMB substrate (Sigma-Aldrich) was added. The reaction was stopped by adding 25 μL of 2N H2SO4. Subsequently, the absorbance at 450 nm was measured and subtracted the absorbance at 570 nm.

T11 sequence (Q16363 25-1823 limits assumed, chain 1 of 3): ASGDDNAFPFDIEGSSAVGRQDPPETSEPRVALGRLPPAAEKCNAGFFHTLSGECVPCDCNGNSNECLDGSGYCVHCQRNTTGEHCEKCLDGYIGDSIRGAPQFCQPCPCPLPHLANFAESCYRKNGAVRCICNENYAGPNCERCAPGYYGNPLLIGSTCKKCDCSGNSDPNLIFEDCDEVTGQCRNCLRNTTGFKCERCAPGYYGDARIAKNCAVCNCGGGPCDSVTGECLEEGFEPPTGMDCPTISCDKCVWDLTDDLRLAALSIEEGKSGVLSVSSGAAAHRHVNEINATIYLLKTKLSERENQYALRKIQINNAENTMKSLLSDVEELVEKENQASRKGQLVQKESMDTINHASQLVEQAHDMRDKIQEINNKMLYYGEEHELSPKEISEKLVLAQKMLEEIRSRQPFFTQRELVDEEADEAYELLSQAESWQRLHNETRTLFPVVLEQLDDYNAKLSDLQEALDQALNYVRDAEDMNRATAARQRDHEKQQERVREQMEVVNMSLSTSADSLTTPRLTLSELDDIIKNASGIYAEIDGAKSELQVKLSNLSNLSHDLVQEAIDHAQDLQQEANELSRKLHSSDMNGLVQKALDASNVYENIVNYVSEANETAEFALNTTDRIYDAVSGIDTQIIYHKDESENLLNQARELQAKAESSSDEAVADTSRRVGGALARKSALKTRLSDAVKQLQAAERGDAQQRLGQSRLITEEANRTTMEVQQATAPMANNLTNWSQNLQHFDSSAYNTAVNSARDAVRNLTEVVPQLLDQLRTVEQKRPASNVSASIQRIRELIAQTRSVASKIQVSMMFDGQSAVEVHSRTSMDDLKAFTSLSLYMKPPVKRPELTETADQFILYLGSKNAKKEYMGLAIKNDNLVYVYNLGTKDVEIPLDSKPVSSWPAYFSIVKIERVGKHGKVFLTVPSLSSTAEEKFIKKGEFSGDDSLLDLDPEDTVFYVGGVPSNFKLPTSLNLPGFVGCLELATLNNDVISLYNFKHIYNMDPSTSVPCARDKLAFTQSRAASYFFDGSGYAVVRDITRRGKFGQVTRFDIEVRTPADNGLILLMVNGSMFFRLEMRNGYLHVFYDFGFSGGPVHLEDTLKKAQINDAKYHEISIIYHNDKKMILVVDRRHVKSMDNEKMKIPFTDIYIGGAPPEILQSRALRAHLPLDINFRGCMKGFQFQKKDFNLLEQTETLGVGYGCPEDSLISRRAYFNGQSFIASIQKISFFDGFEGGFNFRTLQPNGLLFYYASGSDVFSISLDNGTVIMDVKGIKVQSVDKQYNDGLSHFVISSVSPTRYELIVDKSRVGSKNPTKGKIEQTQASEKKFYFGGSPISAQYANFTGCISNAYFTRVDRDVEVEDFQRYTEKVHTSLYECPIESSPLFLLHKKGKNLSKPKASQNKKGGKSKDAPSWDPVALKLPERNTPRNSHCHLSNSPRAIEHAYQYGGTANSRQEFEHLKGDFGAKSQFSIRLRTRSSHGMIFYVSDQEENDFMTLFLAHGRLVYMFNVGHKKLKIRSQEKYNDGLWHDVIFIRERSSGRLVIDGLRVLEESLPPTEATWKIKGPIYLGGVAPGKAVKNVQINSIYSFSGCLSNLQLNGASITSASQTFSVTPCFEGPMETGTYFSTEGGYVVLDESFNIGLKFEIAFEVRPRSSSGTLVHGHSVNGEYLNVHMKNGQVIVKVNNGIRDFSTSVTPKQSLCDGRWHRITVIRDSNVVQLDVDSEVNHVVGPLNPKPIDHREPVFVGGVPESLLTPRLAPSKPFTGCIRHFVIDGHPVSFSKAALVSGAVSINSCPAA
T11 sequence (P07942 22-1786 limits assumed, chain 2 of 3): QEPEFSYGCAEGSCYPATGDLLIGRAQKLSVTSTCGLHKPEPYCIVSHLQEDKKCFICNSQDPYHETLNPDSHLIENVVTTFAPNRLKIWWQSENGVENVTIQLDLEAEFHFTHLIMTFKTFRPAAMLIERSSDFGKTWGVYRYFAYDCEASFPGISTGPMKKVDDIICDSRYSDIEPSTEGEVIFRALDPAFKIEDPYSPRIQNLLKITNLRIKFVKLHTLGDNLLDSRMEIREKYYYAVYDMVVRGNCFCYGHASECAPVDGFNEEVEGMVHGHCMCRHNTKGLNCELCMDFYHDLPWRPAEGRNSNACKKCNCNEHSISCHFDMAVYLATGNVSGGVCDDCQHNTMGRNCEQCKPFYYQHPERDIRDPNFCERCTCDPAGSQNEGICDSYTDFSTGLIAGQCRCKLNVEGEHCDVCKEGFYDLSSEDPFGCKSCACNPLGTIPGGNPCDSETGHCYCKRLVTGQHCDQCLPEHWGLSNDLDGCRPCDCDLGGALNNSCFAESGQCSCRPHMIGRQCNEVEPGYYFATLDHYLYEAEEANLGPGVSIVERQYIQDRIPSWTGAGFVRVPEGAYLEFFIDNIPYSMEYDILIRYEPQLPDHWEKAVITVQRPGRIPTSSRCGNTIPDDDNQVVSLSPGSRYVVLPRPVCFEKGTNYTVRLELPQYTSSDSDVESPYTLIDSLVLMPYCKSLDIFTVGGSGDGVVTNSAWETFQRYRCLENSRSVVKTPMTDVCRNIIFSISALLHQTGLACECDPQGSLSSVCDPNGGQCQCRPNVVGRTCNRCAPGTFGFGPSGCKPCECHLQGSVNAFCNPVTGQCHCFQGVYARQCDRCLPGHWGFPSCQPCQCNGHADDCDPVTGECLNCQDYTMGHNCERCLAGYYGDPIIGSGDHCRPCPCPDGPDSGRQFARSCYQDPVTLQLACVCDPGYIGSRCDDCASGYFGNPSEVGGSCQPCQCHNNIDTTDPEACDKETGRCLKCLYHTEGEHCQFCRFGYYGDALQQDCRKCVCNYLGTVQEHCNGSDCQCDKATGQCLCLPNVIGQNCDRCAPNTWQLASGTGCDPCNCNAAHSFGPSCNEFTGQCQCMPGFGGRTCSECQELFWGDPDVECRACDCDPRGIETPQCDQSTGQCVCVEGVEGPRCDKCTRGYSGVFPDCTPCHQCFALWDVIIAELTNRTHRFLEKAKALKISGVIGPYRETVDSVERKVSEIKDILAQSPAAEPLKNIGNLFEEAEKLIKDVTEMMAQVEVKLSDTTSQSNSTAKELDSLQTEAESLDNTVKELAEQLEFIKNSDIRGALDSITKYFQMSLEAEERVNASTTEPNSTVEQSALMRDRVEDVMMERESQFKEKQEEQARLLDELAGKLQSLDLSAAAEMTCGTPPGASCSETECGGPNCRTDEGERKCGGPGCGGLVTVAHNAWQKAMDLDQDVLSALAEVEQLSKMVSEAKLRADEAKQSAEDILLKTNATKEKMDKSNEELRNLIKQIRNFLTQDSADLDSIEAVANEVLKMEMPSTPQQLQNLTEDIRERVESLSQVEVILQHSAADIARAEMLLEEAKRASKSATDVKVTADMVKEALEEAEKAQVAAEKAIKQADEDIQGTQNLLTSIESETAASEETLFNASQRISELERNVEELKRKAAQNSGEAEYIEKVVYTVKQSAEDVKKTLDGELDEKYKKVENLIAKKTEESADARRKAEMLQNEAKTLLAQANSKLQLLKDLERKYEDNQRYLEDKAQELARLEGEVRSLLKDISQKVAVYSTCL
T11 sequence (P11047 34-1609 limits assumed, chain 3 of 3): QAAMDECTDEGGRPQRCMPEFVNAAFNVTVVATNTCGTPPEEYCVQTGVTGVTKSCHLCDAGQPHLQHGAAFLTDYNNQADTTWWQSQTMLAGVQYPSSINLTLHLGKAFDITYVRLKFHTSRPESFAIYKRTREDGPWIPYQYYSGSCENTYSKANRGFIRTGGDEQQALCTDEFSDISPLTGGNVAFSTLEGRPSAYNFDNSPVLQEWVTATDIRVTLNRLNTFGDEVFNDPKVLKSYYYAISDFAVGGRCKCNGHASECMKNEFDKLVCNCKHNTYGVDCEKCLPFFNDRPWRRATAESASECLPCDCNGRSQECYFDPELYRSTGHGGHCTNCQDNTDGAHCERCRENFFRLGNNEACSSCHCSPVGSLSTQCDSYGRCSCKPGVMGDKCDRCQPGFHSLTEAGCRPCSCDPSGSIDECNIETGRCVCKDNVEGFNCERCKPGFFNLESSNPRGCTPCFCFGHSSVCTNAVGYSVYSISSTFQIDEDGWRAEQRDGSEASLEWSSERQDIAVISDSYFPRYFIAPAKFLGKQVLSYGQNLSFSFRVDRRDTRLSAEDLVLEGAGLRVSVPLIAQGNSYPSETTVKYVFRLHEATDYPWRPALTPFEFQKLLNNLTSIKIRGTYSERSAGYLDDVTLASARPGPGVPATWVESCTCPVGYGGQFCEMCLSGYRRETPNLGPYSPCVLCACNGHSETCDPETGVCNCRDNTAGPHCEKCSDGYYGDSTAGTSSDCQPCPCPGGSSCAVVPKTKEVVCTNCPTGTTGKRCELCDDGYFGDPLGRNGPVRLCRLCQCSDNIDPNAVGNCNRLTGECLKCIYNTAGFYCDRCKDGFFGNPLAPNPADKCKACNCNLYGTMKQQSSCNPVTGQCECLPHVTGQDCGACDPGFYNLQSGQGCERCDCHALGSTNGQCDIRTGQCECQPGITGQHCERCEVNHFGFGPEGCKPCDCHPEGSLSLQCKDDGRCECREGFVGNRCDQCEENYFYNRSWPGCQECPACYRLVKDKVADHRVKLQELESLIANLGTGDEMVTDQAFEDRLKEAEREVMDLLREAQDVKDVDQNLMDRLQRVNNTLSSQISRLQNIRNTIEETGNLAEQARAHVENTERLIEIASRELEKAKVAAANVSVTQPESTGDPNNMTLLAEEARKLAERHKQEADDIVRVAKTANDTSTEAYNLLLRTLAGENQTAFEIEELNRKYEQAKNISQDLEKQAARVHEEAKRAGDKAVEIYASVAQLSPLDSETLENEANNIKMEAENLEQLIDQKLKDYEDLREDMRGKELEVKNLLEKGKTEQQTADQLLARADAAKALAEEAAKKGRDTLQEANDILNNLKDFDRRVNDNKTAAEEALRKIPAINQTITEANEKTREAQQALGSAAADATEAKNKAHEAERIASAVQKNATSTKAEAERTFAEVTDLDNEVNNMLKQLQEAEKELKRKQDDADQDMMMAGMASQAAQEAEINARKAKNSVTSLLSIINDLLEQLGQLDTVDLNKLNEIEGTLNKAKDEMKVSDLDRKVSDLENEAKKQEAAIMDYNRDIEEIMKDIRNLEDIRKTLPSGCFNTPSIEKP

| Binder | binding result [1] | binding result [2] | binding result [3] | binding result (laminin-111) | binding result (laminin-411) | binding result (laminin-332) | binding result (laminin-421) | binding result (laminin-511) | binding result (laminin-211) | binding result (laminin-521) | further results |
| --- | --- | --- | --- | --- | --- | --- | --- | --- | --- | --- | --- |
| B1 | no binding | no binding | no binding | – | – | – | – | – | – | – | – |
| B2 | no binding | no binding | no binding | – | – | – | – | – | – | – | – |
| B3 | no binding | no binding | no binding | – | – | – | – | – | – | – | – |
| B4 | no binding | no binding | no binding | – | – | – | – | – | – | – | – |
| B5 | no binding | no binding | no binding | – | – | – | – | – | – | – | – |
| RLVFALGTDGKKLRIKSKEKCNDGK (Chemically synthesized (Genscript)) [laminin α3 3043-3067 peptide (LG4)] | – | – | – | – | – | – | – | – | – | – | binding result [4]: binds; binding result [5]: binds; binding result [6]: binds; binding result [7]: binds; binding result [8]: binds; binding result [9]: binds; binding result [10]: binds; binding result [11]: no binding (tested: 1 µg/mL); binding result [12]: no binding (tested: 1 µg/mL) |
| B6 | – | – | – | no binding (tested: A450 0.1) | no binding (tested: A450 0.1) | no binding (tested: A450 0.1) | no binding (tested: A450 0.1) | no binding (tested: A450 0.1) | no binding (tested: A450 0.1) | no binding (tested: A450 0.1) | binding result (human plasma-derived vWF): no binding |
| B7 | – | – | – | no binding (tested: A450 0.1) | no binding (tested: A450 0.1) | no binding (tested: A450 0.1) | no binding (tested: A450 0.1) | no binding (tested: A450 0.1) | no binding (tested: A450 0.1) | no binding (tested: A450 0.1) | – |
| B8 | – | – | – | no binding (tested: A450 0.1) | no binding (tested: A450 0.1) | no binding (tested: A450 0.1) | no binding (tested: A450 0.1) | no binding (tested: A450 0.1) | no binding (tested: A450 0.1) | no binding (tested: A450 0.1) | binding result (human plasma-derived vWF): no binding |
| TLFLAHGRLVYMFNVGHKKLKIR (Chemically synthesized (Genscript)) [laminin α4 1521-1543 peptide (LG4)] | – | – | – | – | – | – | – | – | – | – | binding result [4]: binds; binding result [6]: binds; binding result [7]: binds; binding result [8]: binds; binding result [9]: binds; binding result [10]: binds; binding result [11]: no binding (tested: 1 µg/mL); binding result [12]: no binding (tested: 1 µg/mL) |
